Reference: paper PMC6595007, “Structural basis for cooperativity of human monoclonal antibodies to meningococcal factor H-binding protein” (Communications Biology, 2019)

What was measured:
Conditions in all cases: both partners purified
human factor H [1] = molecular target: T1, human factor H (human, UniProt P08603 19-1231); experiment: SPR; fHbp var.1 captured on immobilised mAb 1A12, second mAb 1A12 injected (identical, no signal of the second mAb), then fH at 100 nM, 30 µl/min; HBS-P
T1 construct: also called fH; human fH
T1 sequence (P08603 19-1231): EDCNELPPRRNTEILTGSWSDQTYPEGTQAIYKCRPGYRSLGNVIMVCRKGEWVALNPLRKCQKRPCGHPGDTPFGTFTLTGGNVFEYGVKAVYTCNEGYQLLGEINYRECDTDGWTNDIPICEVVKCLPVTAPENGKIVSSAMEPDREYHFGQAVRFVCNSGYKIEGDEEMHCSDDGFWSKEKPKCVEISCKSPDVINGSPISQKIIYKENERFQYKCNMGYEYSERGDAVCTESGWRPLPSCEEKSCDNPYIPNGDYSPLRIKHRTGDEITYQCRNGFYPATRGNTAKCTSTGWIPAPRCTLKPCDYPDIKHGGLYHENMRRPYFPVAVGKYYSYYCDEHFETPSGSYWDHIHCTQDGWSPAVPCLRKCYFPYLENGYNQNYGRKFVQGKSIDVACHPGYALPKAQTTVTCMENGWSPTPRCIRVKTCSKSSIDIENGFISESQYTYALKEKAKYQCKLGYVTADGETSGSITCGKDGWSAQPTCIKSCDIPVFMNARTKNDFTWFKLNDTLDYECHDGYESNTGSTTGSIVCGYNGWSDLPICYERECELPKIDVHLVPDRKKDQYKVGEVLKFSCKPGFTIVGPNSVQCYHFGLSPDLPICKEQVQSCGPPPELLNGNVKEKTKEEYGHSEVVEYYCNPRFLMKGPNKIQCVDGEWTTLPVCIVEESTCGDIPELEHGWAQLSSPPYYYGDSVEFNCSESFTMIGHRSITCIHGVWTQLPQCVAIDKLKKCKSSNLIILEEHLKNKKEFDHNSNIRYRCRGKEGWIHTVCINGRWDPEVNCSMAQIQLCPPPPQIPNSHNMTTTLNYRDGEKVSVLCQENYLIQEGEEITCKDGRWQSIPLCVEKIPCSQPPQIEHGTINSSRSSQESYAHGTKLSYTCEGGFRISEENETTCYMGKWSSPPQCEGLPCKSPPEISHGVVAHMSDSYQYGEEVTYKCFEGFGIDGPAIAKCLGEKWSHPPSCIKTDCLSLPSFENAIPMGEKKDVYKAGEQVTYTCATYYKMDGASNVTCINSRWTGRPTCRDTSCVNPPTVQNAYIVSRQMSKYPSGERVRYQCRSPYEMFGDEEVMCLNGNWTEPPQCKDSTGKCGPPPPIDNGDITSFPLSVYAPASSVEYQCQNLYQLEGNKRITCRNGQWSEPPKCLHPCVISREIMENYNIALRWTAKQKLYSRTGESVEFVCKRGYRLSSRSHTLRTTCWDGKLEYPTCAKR

human factor H [2] = molecular target: T1, human factor H; experiment: SPR; quaternary complex: fHbp var.1 captured on immobilised mAb 1A3, second mAb 1A12 injected, then fH at 100 nM, 30 µl/min; HBS-P
human factor H [3] = molecular target: T1, human factor H; experiment: SPR; fHbp var.1 captured on immobilised mAb 7B10, second mAb 1A3 injected, then fH at 100 nM, 30 µl/min; HBS-P
human factor H [4] = molecular target: T1, human factor H; experiment: SPR; quaternary complex: fHbp var.1 captured on immobilised mAb 1A3, second mAb 2C1 injected, then fH at 100 nM, 30 µl/min; HBS-P
human factor H [5] = molecular target: T1, human factor H; experiment: SPR; ternary complex: fHbp var.1 captured on immobilised mAb 1A12 (CM-5), no second mAb; fH injected at 100 nM, 30 µl/min; HBS-P
human factor H [6] = molecular target: T1, human factor H; experiment: SPR; quaternary complex: fHbp var.1 captured on immobilised mAb 1A12, second mAb 1A3 injected, then fH at 100 nM, 30 µl/min; HBS-P
human factor H [7] = molecular target: T1, human factor H; experiment: SPR; ternary complex: fHbp var.1 captured on immobilised mAb 7B10 (CM-5), no second mAb; fH injected at 100 nM, 30 µl/min; HBS-P
human factor H [8] = molecular target: T1, human factor H; experiment: SPR; ternary complex: fHbp var.1 captured on immobilised mAb 1A3 (CM-5), no second mAb; fH injected at 100 nM, 30 µl/min; HBS-P
human factor H [9] = molecular target: T1, human factor H; experiment: SPR; fHbp var.1 captured on immobilised mAb 1A12, second mAb 2C1 injected, then fH at 100 nM, 30 µl/min; HBS-P
human factor H [10] = molecular target: T1, human factor H; experiment: SPR; fHbp var.1 captured on immobilised mAb 1A3, second mAb 1A3 injected (identical, no signal of the second mAb), then fH at 100 nM, 30 µl/min; HBS-P
human factor H [11] = molecular target: T1, human factor H; experiment: SPR; quaternary complex: fHbp var.1 captured on immobilised mAb 7B10, second mAb 2C1 injected, then fH at 100 nM, 30 µl/min; HBS-P
human factor H [12] = molecular target: T1, human factor H; experiment: SPR; quaternary complex: fHbp var.1 captured on immobilised mAb 7B10, second mAb 1A12 injected, then fH at 100 nM, 30 µl/min; HBS-P
[13] = molecular target: T2, factor H-binding protein variant 1 (fHbp var.1), recombinant, full length (Neisseria meningitidis, UniProt E6MV22); experiment: HDX-MS; 54 pmol antibody mixed with an equimolar amount of fHbp var.1, 30 min at room temperature; exposure 30 s to 30 min; difference counted when above 1 Da
T2 construct: source: E. coli BL21 (DE3) Star, pET-21b, purified (HisTrap HP, HiTrap SP HP)

[14] = molecular target: T2, factor H-binding protein variant 1 …; experiment: negative-stain transmission electron microscopy (single particle, random conical tilt); complexes formed at 1:1 molar ratio, 1 h at room temperature, purified on Superdex 200 Increase; diluted to 0.03 mg/ml in 20 mM Tris, 300 mM NaCl, pH 8; 1% uranyl acetate
[15] = molecular target: T2, factor H-binding protein variant 1 …; experiment: SPR

B1: factor H-binding protein variant 1 (fHbp var.1), recombinant, full length (natural protein)
chain: CSSGGGGVAADIGAGLADALTAPLDHKDKGLQSLTLDQSVRKNEKLKLAAQGAEKTYGNGDSLNTGKLKNDKVSRFDFIRQIEVDGQLITLESGEFQVYKQSHSALTAFQTEQIQDSEHSGKMVAKRQFRIGDIAGEHTSFDKLPEGGRATYRGTAFGSDDAGGKLTYTIDFAAKQGNGKIEHLKSPELNVDLAAADIKPDGKRHAVISGSVLYNQAEKGSYSLGIFGGKAQEVAGSAEVKTVNGIRHIGLAAKQ
notes: source: E. coli BL21 (DE3) Star, pET-21b, purified (HisTrap HP, HiTrap SP HP)
B1 showed a koff (human factor H [1]) of 0.0018 s⁻¹, a koff (human factor H [2]) of 0.00035 s⁻¹ and a koff (human factor H [3]) of 0.00032 s⁻¹. For the same binder, the koff (human factor H [4]) was 0.00063 s⁻¹, the koff (human factor H [5]) was 0.0016 s⁻¹ and the koff (human factor H [6]) was 0.00068 s⁻¹. For the same binder, the koff (human factor H [7]) was 0.00032 s⁻¹, the koff (human factor H [8]) was 0.00074 s⁻¹ and the koff (human factor H [9]) was 0.043 s⁻¹. It also gave a koff (human factor H [10]) of 0.00074 s⁻¹, a koff (human factor H [11]) of 0.00029 s⁻¹ and a koff (human factor H [12]) of 0.00011 s⁻¹.

B2: human monoclonal antibody 7B10 (IgG1) against fHbp (antibody, V domains shown)
VH: QVQLVESGGGLVQPGGSLRLSCVTSGFTFRSYAMTWVRQAPGKGLEWVSSISHSGGSTKYADSVKGRLTISRDDSMDTLYLQMNSLRAEDTAIYYCAKDQISYPAASPLDYWGRGTLVTVSS
VL: EIVLTQSPGTLSLSPGERATLSCRASQSFSSFSLAWYQQKPGQAPRLLIYAPSNRATGIADRFSGSGSGTDFTLTISRLEPEDFAVYYCQQYGSSPITFGQGTRLEIK
notes: also called mAb7B10; mAb 7B10; source: Expi293 cells, transiently transfected, purified (protein G beads)
B2: binds [13].

B3: antigen-binding fragment of human mAb 7B10 (Fab, V domains shown)
VH: QVQLVESGGGLVQPGGSLRLSCVTSGFTFRSYAMTWVRQAPGKGLEWVSSISHSGGSTKYADSVKGRLTISRDDSMDTLYLQMNSLRAEDTAIYYCAKDQISYPAASPLDYWGRGTLVTVSS
VL: EIVLTQSPGTLSLSPGERATLSCRASQSFSSFSLAWYQQKPGQAPRLLIYAPSNRATGIADRFSGSGSGTDFTLTISRLEPEDFAVYYCQQYGSSPITFGQGTRLEIK
notes: also called fAb7B10; huFab 7B10; source: E. coli Rosetta 2, purified (His Gravity Trap, HiTrap SP HP)
B3: binds [14].

B4: human monoclonal antibody 1A3 (IgG1) against fHbp (antibody, V domains shown)
VH: EVQLVESGGGLVQPGGSLRLSCAASGFTFSSYAMSWVRQAPGKGLEWVSAISGSGGSSHYTDSVKGRFTISRDNSKNTLWLQMNSLRAEDTAIYYCAKTSGSYYYHYEIDVWGQGTTVTVSS
VL: EIVLTQSPGTLSLSPGERATLSCRASQSVSSSYLAWYQQKPGQAPRLLIYGTSNRATGIPDRFSGSGSGTDFTLTVSRLEPEDFAVYYCQQYGSSPCSFGQGTKLELK
notes: also called mAb1A3; mAb 1A3; source: Expi293 cells, transiently transfected, purified (protein G beads)
B4: binds [15].

B5: antigen-binding fragment of human mAb 2C1 (Fab, V domains shown)
VH: QVQLVESGGGVVQPGRSLRLSCAASGFTFSSFAMHWVRQAPGKGLEWVAVTSFDGKDEYYAASVKGRFSVSRDISKNTVYLQMNSLKTEDTAVYYCAKDRGDWDFDYWGQGTLVTVSS
VL: SYELTQPPSVSVSPGQTATITCSGEKLGDKYTSWYQQKPGQSPVLIIYQDTKRPSGIPARFSGSNSGNTATLTISGTQAVDEADYYCQAWDSYTVPFGGGTKLTVL
notes: also called fAb2C1; huFab 2C1; source: E. coli Rosetta 2, purified (His Gravity Trap, HiTrap SP HP)
B5: binds [14].

B6: human monoclonal antibody 2C1 (IgG1) against fHbp (antibody, V domains shown)
VH: QVQLVESGGGVVQPGRSLRLSCAASGFTFSSFAMHWVRQAPGKGLEWVAVTSFDGKDEYYAASVKGRFSVSRDISKNTVYLQMNSLKTEDTAVYYCAKDRGDWDFDYWGQGTLVTVSS
VL: SYELTQPPSVSVSPGQTATITCSGEKLGDKYTSWYQQKPGQSPVLIIYQDTKRPSGIPARFSGSNSGNTATLTISGTQAVDEADYYCQAWDSYTVPFGGGTKLTVL
notes: also called mAb2C1; mAb 2C1; source: Expi293 cells, transiently transfected, purified (protein G beads)
B6: binds [13].

B7: human monoclonal antibody 1A12 (IgG1) against fHbp (antibody, V domains shown)
VH: EVQLVQSGAELKKPGESLKISCKASGYTFTNYWVVWVRQMPGEGLEWMGSIHPRDSDARYSLSFEGRVTFSVDKSTTTAYLQWSSLKVSDSAIYYCARLSQVSGWSPWVGPWGQGTLVTVSS
VL: DIVMTQSPSSLSASVGDRVTITCRASQSISVSLNWYQQKPGKAPKVLIYAASRLQSGIPSRFSGSGSGSHFTLTISSLQPEDFATYYCQETYSDLMYTFGQGTKVEIK
notes: also called mAb1A12; mAb 1A12; source: Expi293 cells, transiently transfected, purified (protein G beads)
B7: binds [15].
